The source of these data is IntAct's records for PubMed 18029035.

The chains are these.
B1: Coiled-coil domain-containing protein 50 (Homo sapiens), Q8IVM0 (parent)
chain: MAEVSIDQSKLPGVKEVCRDFAVLEDHTLAHSLQEQEIEHHLASNVQRNRLVQHDLQVAKQLQEEDLKAQAQLQKRYKDLEQQDCEIAQEIQEKLAIEAERRRIQEKKDEDIARLLQEKELQEEKKRKKHFPEFPATRAYADSYYYEDGGMKPRVMKEAVSTPSRMAHRDQEWYDAEIARKLQEEELLATQVDMRAAQVAQDEEIARLLMAEEKKAYKKAKEREKSSLDKRKQDPEWKPKTAKAANSKSKESDEPHHSKNERPARPPPPIMTDGEDADYTHFTNQQSSTRHFSKSESSHKGFHYKH

The variants in this test derive from B1. The note with it: with ubb_human UBB.
With L116P, the “effect of a mutation on the interaction” value is on record as “decreasing interaction”.
